The text below walks through data of paper PMC11228995.

One may read the stoichiometry N as the number of molecules, sites or subunits per partner or assembly.

“And” between values parts separate entries of the source, which are not always exact repeats. Equal entries are not always repeated.

For experiment [1], the target named is CXCL4. Kind of experiment: native MS; pure chemokine, 20 μM in 250 mM ammonium acetate buffer, nanoelectrospray, Waters Synapt G2-S, ion mobility separation bypassed.
The target in experiment [2] is CXCL4. The experiment can be described thus: native MS; chemokine (20 μM solution in 250 mM ammonium acetate) mixed with fondaparinux at 1:1 molar ratio, nanoelectrospray, spectra deconvoluted in UniDec.

For the substance CXCL4 (natural protein), the stoichiometry N in experiment [1] was 4; in experiment [2], 4 and 2.
